Experimental data from the nanobody polyreactivity screen of Harvey et al. (2022).

Assay: yeast display, Sf9 membrane polyspecificity reagent, FACS + sequencing; frameworks hold sequencing errors
Summary of the method: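 Sorting gates, low and high (top ~1%), were placed on anti-HA fluorescence to track expression and on streptavidin fluorescence to track reagent binding. A clone's polyreactivity label is taken from the gate it came out of. The reagent was 10% biotinylated, detergent-solubilized Sf9 membrane, applied for 1 hour at 4 °C to galactose-induced yeast display cells.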

| Sequence | polyreactivity (PSR sort gate) |
| --- | --- |
| QVQLVESGGGLVQAGGSLRLSCAASGSTFGSYAMGWYRQAPGKERELVAAISRGGGSTYYADSVKGRFTISRDNAKNTVYLQMKSLKPEDTAVYYCAASFSRYGLVLYSIEDYWGQGTQVTVSS | high polyreactivity |
| QVQLVESGGGLVQAGGSLRLSCAASGSTFGSYAMGWYRQAPGKERELVASISLSDGSTYADSVKGRFTISRDNAKNTVYLQMNSLKQEDTAVYYCNVDWFSHDSDYYSFAYDYWGQGTQVTVSS | high polyreactivity |
| QVQLVESGGGLVQAGGSLRLSCAASGSTFGSYVMGWYRQAPGKERELVAAISQRGTSTYYADSVKGRFTISRDNAKNTVYLQMNSLKPEDTAVYYCNALYWQIGDDYWGQGTQVTVSS | high polyreactivity |
| QVQLVESGGGLVQAGGSLRLSCAASGSTFGTNAMGWYRQAPGKEREFVAAISRRGGRTYYADSVKGRFTISRDNAKNTVYLQMNSLKPEDTAVYYCNAVSTGQGLYDYWGQGTQVTVSS | high polyreactivity |
| QVQLVESGGGLVQAGGSLRLSCAASGSTFGTNAMGWYRQAPGKERELVAAISVSSTYYADSVKGRFTISRDNAKNTVYLQMNSLKPEDTAVYYCAADNSYGYRLDYWGQGTQVTVSS | low polyreactivity |
| QVQLVESGGGLVQAGGSLRLSCAASGSTFGTNAMGWYRQAPGKERELVARINSSASTTYADSVKGRFTISRDNAKNTVYLQMNSLKPEDTAVYYCNADDRHSRVGHSWQDAQFDYWVQGTQVTVSS | high polyreactivity |
| QVQLVESGGGLVQAGGSLRLSCAASGSTFGTYAMGWYRQAPGKEREFVAVIRWSGGSTYYADSVKGRFTISRDNAKNTVYLQMNSLKPEDTAVYYCNADTRVKYVGWMYYWGQGTQVTVSS | high polyreactivity |
| QVQLVESGGGLVQAGGSLRLSCAASGSTFGTYAMGWYRQAPGKERELVAAINTSGGSTTYADSVKGRFTISRDNAKNTVYLQMNSLKPEDTAVYYCAKDTTGDAYSEYDYWGQGTQVTVSS | low polyreactivity |
| QVQLVESGGGLVQAGGSLRLSCAASGSTFGVNAMGWYRQAPGKERELVAAIRSAVPTYYADSVKGRFTISRDNAMNTVYLQMNSLKPEETAVYYCAARHRESQRRYDYWGQGTQVTVSS | high polyreactivity |
| QVQLVESGGGLVQAGGSLRLSCAASGSTFGVNARGWYRQAPGKERELVAGITWTGGSSYYADSVKGRFTISRDNAKNTVYLQMNSLKPEDTAVYYCAKDWYSSYYDDSEDSWGQGTQVTVSS | low polyreactivity |
| QVQLVESGGGLVQAGGSLRLSCAASGSTFGVSAMGWSRQAPGKERELVAAISGRGGRTYYADSVKGRFTISRDNAKNTVYLLMNSLKPEDTAVYYFAVVGSAYQSRYDYWGQGTQVTVSS | high polyreactivity |
| QVQLVESGGGLVQAGGSLRLSCAASGSTFGVYAMGRYRQAPGKERELVAAISYGDSTNYADSVKGRFTISRDNAKNTVYLQMNSLIPEDTAVYYCNALELYAAYPEYYLYYWYDYWGQGTQVNVSS | high polyreactivity |
| QVQLVESGGGLVQAGGSLRLSCAASGSTFGWNTMGWYRQAPGKERELVAAISWSGDRTYYADSVKGRFTISRDNAKNTVYLQMNSLKPDDTAVYYCARQRYYGYYYWGQGTQVTVSS | high polyreactivity |
| QVQLVESGGGLVQAGGSLRLSCAASGSTFGWYAMGWDRQAPGKERELVAAIRNNDGRTYYADSVKGRFTISRDNAKNTVYLQMNSLKPEDTAVDYCNKRLDTVGWYHGYNYWGQGTQVTVSS | low polyreactivity |
| QVQLVESGGGLVQAGGSLRLSCAASGSTFGWYAMGWFRQAPGKERELVAAITSGGSTKYADSVKGRFTISRDNAKNTVYLQMNSLKPEDTAVYYCATVRGYYSPVQVIGYFWGQGTQVTVSS | high polyreactivity |
| QVQLVESGGGLVQAGGSLRLSCAASGSTFGWYAMGWYRQAPGKERELVAAISTSGNTYYADSVKGRFTISRDNAKNTVYLQMNSLKPEDTAVYYCAKYVNPDHDYWGQGTQVTVSS | low polyreactivity |
| QVQLVESGGGLVQAGGSLRLSCAASGSTFGWYAMGWYRQAPGKERELVASISRSGGRTFYADSVKGRFTISRDNAKNTVYLQMNRLKPEDTAVYYCAADALIYYKGSPDYYWGQGTQVNVSS | high polyreactivity |
